US6346611

Molecular target: human transforming growth factor β2 (TGFβ2) (human) (UniProt P61812)
Assay: cell-based or functional assay

Chain of human transforming growth factor β2 (TGFβ2) (human) (P61812 303-414 limits assumed): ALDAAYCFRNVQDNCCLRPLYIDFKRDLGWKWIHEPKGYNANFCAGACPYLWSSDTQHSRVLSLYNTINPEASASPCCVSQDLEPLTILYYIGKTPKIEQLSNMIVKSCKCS

Ki, reversal of TGFβ2-mediated inhibition of 3H-thymidine incorporation in mink lung epithelial cells: 0.5 nM
Substance: latency-associated protein (LAP)
